According to PMC11494503 (2024):

Target: T1, cyclo-CLLFCL (head-to-tail cyclic peptide)
T1 chain: CLLFCL
Assay: microscale thermophoresis

Kd: 470 nM
B1: HIF-1α PAS-B (protein)
chain: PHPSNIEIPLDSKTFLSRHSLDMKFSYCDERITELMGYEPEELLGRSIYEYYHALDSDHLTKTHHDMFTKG
